Assay: yeast display, Sf9 membrane polyspecificity reagent, FACS + sequencing; frameworks hold sequencing errors
Summary of the method: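 Galactose induction of a Saccharomyces cerevisiae BJ5465 synthetic nanobody display library ran 36–48 hours. The cells were then stained for 1 hour at 4 °C with 10% biotinylated, detergent-solubilized Sf9 membrane reagent, pulled down on streptavidin microbeads and FACS-sorted into low and high (top ~1%) gates on expression and reagent-binding fluorescence. Labels for polyreactivity follow the gate of origin.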

Sequence	polyreactivity (PSR sort gate)
QVQLQESGGRQVQAGGSLRLSCAASGSNSYASGMGWYRQAPRKEREFVARIDPGAITNYADSVKGRFTISHDNAQNTVYLQMKSLKPEDNAVYYCAARVSTTDSRRILRKYLYYVHFDYWGQGTQLTVSS	high polyreactivity
QVQLVESGGGLVQAGGSLRLSCAASGYIFYFYAMGWYRQAPGKERELVAAISSSGGSTRYADSVKGRFTISRDNAKNTVYLQMNSLKPEDTAVYYCAASHWSGAAWYYYWGQGTQVTVSS	high polyreactivity
QVQLVESGGGLVQAGGSLRLICAASGLTFRVYTMGWYRQAPGQERELVASISRSGASTYYADSVKGRFTISRDNAKNTVYLQMNSLKPEDTAVYYCNAVTSWPRRDFDYWGQGTQVTVSS	high polyreactivity
QVQLVESGGGLVQAGGSLRLSCADSGFTFRYNAIGSYRQAPGKERELVARISSTGGGTSYADSVKGRFTISRDNAKNTVYLQMNSLKPEDTAVYYCNKRSWGYGRGLPDSDYWGQGTQVTVSS	low polyreactivity
QVQLVESGGGLVQAGGSLLLSCAASGRIFRSYTMGWYRQAPGKERELVAAITSYGGRTYYADSVKGRFTISRDNAKNTVYLQMNRLKPEDTAVYYCAAHLSRDKFDYWGQGTQVTVSS	low polyreactivity
QVQLVESGGGLVQAGGSLRLSCAASGSTFKRYAMGWYRQAPGKERELVASISQRGGTTYYADSVKGRFTISRDNAKNTVDLQMNSLKPEDTAVYYCAKGFGWTRTIYDYWGQGTQVTVSS	high polyreactivity
QVQLVESGGGLVQAGGSLRLSCAASGITFQSNTMGCYRQAPGKERELVAAITWTGGRTYYADSVKGRFTISRDNAKNTVYLQMNSLKPEDTAVYYCNADGYAIGYNGKLDYWGQGTQVTVSS	high polyreactivity
QVQLVESGGGLVQAGGSLRVSCAASGSTFFRYVMGWYRQAPGNERELVARITSSGSTYYADSVKGRFTISRDNAKNTVYLQMNSLKPEDTAVYYCAAVYASYPYRTKFYYWGQGTQVTVSS	high polyreactivity
QVQLEESGGGLVQAGASLRLICAASGFTFARNAMGWYRQAPGKERELVASITSGGSTNYADSVKGRFTISRDNAKNTVYLQMNSLKPEETAVYYCAAYQWIAPRRDYWGQGTQVTVSS	low polyreactivity
QVQLVESGGGLVQAGGSLRLSCAASRRIFDHNAMGWYRQAPGKERELVAAISSSGGRTYYADSVKGRFTISRDNAKNTVYLQMNSLKPEDTAVYYCNKVRTVTTYEYWGQGTQVTVSS	high polyreactivity
QVQLVESGGGLVQAGGSLRLSCAASGSIFYVYAMGWYRQAPGKERELVAAITNYADSVMGRFTISRDNAKNTVYLQMNSLKPEDTAVYYCAADWWRVEMDYWGLGTQVTVSS	low polyreactivity
QVQLVESGGGLVQAGGSLRLSCAASGRTFKTYAMGWYRQAPGKERELVAAIDSGGNTYADSVKGRFTISRDNAKNTVYLQMNSLKPEDTAVYYCAVDGGEFSSYGYWGHGTQVTVSS	low polyreactivity
QVQLVESGGGLVQAGGSLRLSCAASGYIFLAYAKGWYRQAPGKERELVADNTYADSVKGRFTISRDNAKNTVYLKMNSMKPEDTAVYYCNADEVYDEYSYDYWGHGTQVTVSS	low polyreactivity
QVQLVESGGGLVQAGGSLRLICAASGRPSVLMLMGLYRQEPGKERELVAAIDDSTDTTYYADSVKGRFTISRDNAKNTVYLQMNSLKPDVTAGYYCADEEGYVKFSGSWSYGYDYWGQGTQVTVSS	high polyreactivity
QVQLVESGGGLVQAGGSLRLSCAPSGRTFSRNAMGWYRQAPGKERELVAAISQRGVSTYYADSVKGSFTISRDNAQNSVYLQMNSLKPEDSAVYYCNTRGTYRYDYWGQGTQGTVSS	low polyreactivity
QVQLVESGGGLVQARGSLRLICAASGRTINGYVMGWYRPAPGKEREFVAVINWSGGNTYYADSVKGRFTISRDNAKNTLYLQMNSLKPEDTAVYDCAARRVRSYAYDYWGQGTEVTVSS	high polyreactivity
PVQLVESGGVLVQAGCILRLSCAASGSTFYGYAMGWYRQAPGKERELVAANTSTVITDYADSVKGRFTISRDNAKNTFYFQMNSLKPEVPAVYDCNKERATSVTAEFRGDDAYWVQGTQVTVSS	low polyreactivity
QVQLVESGGGLVQAGGSLRLSCAASGRIFTRNAMGWYRQAPGKEREFVAAISSSGSSTYFADSVKGRFTISRDNAKNTVYLQMNSLKPEDTAVYYCAARVTSPVSHDRVDYWGQGTQVTVSS	high polyreactivity
QVQLVESGGGLVQAGGSLRLSCAASGSIFEPYVMGWYRQAPGKERELVAVITSGSGRTYYADSVKGRFTISRDNAKNTVYLQMNSLKPEDTAVYYCNKAYLGYRYDLYDYWGQGTQVTVSS	low polyreactivity
QVQLVESGGGLLHAGGSLRLSCAASGRTFPSYAMGWYRQAPGKERELVAAISSRGSRTYYADSVKGRFTISRDNAKNTVYLQMYSLKPEDTAVYYCAAKNLWTRKSRYDYWGQGTQVTVSS	high polyreactivity
QVQLVESGGGLVQAGGSLRLSCAASGITFSGNAMGWYRPATGKERELVAGISRRGGSTYYADSVKGRFTISRDNAKNTVYLEMNSLKPEDTAVYYCARQFRRYYYAGYRYDYWGQGTQVTVSS	high polyreactivity
QVQLVESGGGLVQAGGSLRLTCAASGSIFHGNDMGWYRQAPGKETELVATISSGGSTYYADSVKGRFTSSRDNAKTTVYLQMNSLKPEDTAVYYCAAERFWPYKSYYWGQGTQVTVSS	low polyreactivity

Sequence	polyreactivity (PSR sort gate)
QVQLVESGGGLVQAGGSLRLSCAASGRIFRPYAMGWYRLAPGKERELVAAISWSGDDTYYADSVKGRFTISRDNAKNTVYLQMNSLKPEDTAVYYCAAEVYAAAYDYWGQGTQVTVSS	low polyreactivity
QVQLVESGGGLVQAGGSLRLSCAASGFILYTYAMGWYIQAPGKERELVADIDSGDGTYYADSVKGRFTISRDNAKNTVYLQMNSLKPEDTAVDYCAADYGGASEYGYWGQGTQVTVSS	low polyreactivity
QVQLVESGGGLVQAGGSLRLSCAASGSTFFVYAMGWYRQSPGKERELVADITNSGGNTYYADSVKGRFTISRDNAKNTVFLQMISLKPEDTAVYYCSGEYWFTSYDSWGQGTQVTVSS	high polyreactivity
QVQLVESGGGLVQAGGTLRLSCAASGSIFWSYAMGWYRQAPGKEREFVASITGSGGTTTYADSVKGRFTISRDNAKNTVYLQMISLKPEDTAVYYCNARLHGWYHVYYIYDYWGQGTQVTVSS	low polyreactivity
QVQLVESGGGLVQAGGSLRLSCAASGSIFYKYTMGWYRQAPGKERELVAAITRSGGSTYYADSVKGRFTISRDNAKNTVYLQMNSLKPEDTAVYYCAAERASFRYQDYYIYDYWGQGTQVTVSS	high polyreactivity
QVQLVESGGGLVQAGGSLRLSCAASGSTFQTYARGWYRQAPGKERELVASIDYSGGSTYYADSVKGRFTISRDNAKNTVYLQMNSLKPEDTAVYYCAKALSQTWYDGQYGYWGQGTQVTVSS	low polyreactivity
QVQLVESGGGLLQAGGSLRLSCAASGNTFITNAKGWYRQAPGKERDLVAAISSGGTTYYADSVKGRFTISRDTAKNTVYLQMYSLKPEDTAVYYCATDIHSVHNNRDKHDYDYWGQGTQVTVSS	low polyreactivity
QVQLVESGGGLVQAGGSLRLSCAASGSTFYRNAMGWYRQAPGKERELVAAISRDGSTYYADSVKGRFTISRDNAKNTVYLQMNSLKPEDTAVYSCAKAGVTNGVVVDSVYAYDYWGQGTQVTVSS	low polyreactivity
QVQLVESGGGLVQAGGSLRLSCAASGRTFAFYAMGWYRQAPGKERELVAVITKSGGITYYADSVKGRFTISRDNAKNTVYLQMKSLKPEDTAVYYCAADYRYTPNYLYYYWGQGTQVTVSS	low polyreactivity
QVQLVESGGGLVQAGGSLRLSCAASGLTFSDYAMGWYRQAPGKERELVAAITWRGTSTYYADSVKGRFTISRDNAKNTVYLQMNSLKPEDTAVYYCAARKYTGSGTRYYYWGQGTQVTVSS	high polyreactivity
QVQLVESGGGLVQAGGSLRLSCAASGFTFYWYAMGWYRQAPGKERELVAAISRGGSTNYADSVKGRFTISRDNAKNTVYLQMNSLKPEDTAVYYCARDNPYRWFYRYVGEGDYWGQGTQVTVSS	low polyreactivity
QVQLVESGGGLVQAGGSLRLSCAASGRIFYGNAMGWYRQAPGKERELVAAISSGTTTNYADSVKGRFTISRDNAKNTVYLQMNSLKPEDTAVYYCAAGSYSRYLYSLYFDFDYWGQGTQVTVSS	low polyreactivity
QVQLGESGVGLVQAGGSHRLSCAASGSTSPINAMGWYRQAPGKERELVAVISSSGGRTYYADSVKGRFTISRDNAKNTVYLQMNSLKPEDTAVYYCANRFSRRQPDYDYWGQGTQVTVSS	high polyreactivity
QVQLVESGGGLVQPGGSLRLSCAASGSIFYWYNMGWYRQAPGKERELVAAINDSGGSTHYADSVKGRFTISRDNEKNTFYLQMNSLKPEDTAVYYCAARKLSSYAYDYWGQGTQVTVSS	low polyreactivity
QVQLVESGGGLVQAGGSLRLSCAASGSTFFWYAMGWYRQAPGKEREFVAAITYRGGSTHYADSVKGRFTISRDNAKNTVYLQMNSLKPEDTAVYYCAARSLRYPYDYWGQGTQVTVSS	low polyreactivity
QVQLQESGAGLDQAGGSLRLSCAPSGYISDIGTMGWYRQAPGKEREFVATIVVGSTTNYADSVKGRFTISRDNAKNTVYLQPESGRYRGVVLRGWLLAVGKFTYWGQGTQETVSS	low polyreactivity
QVQLVESGGGLVQAGGSLRLSCAASGRILCGNTMGWYRQAPGKERELVAAISWNGGGTYYADSVKGRFTISRDNAKNTVYLQMNSLKPEDTAVYYCAAYKEPYYEEYGYWGQGTQVTVSS	low polyreactivity
QVQLQESGACLVLAGGSLRMSCASSGYIFDTCPMGGYRQAPGKEREFVASIDHGSNTYYADSVKGRFTISRDSAKNTVYLQLNSLKPEDTAVYYCAVRDDGSYTYGNWGQGTQVSVSS	high polyreactivity
QVQLVEAGGGLVQAGGSLRLSCAAYGRTFYTYAMGWYRQAPGKEREFVAAITWSGGSTYYADSVKGRFTISRDNAKNTVYLQMNSLKPEDPAVYYCAAGSRFRYSPGQSYEYGYWGQGTQVTVSS	low polyreactivity
QVQLVESGGGLVQAGGSLRLSCAASGSTFPGNAMGWYRQAPGKESELVASISGGGDSTYYADSVKGRFTISRDNAKNTVYLQMISLKPEDTAVYYCAADYRQEPGYTGYYYWGQGTQVTVSS	low polyreactivity
QVQLVESGGGLVQAGGSLRLSCAASGFTFRQNAMGWYRQAPRKERELVAAISSGGRTKYADSVKGRFTISRDNANNTVYLHMNSLKPEDTALYYCAADKRVYTQLNDSWGQGTQVTVSS	high polyreactivity
